According to patent publication US20230272099A1 (Chugai, published 2023):

T1: human FcgRIIa type H extracellular domain (human, UniProt P12318 34-217)
T1 construct: extracellular domain; also called hFcgRIIaH
T1 sequence (looked up): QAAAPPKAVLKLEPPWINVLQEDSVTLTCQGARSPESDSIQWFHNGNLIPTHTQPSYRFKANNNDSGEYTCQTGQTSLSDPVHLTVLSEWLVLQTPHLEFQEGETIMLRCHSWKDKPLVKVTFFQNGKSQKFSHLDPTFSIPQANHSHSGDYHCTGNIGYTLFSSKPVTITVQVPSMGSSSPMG

T2: human FcgRIIa type R extracellular domain (human, UniProt P12318 34-217)
T2 construct: extracellular domain; also called hFcgRIIaR
T2 sequence (looked up): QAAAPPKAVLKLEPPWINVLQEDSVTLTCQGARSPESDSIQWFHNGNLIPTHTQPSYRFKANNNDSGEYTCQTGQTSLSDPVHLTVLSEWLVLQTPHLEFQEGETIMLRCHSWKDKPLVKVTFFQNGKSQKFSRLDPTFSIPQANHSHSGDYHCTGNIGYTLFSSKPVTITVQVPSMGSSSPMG

T3: human FcgRIIb extracellular domain (human, UniProt P31994 43-217)
T3 construct: extracellular domain; also called hFcgRIIb
T3 sequence (looked up): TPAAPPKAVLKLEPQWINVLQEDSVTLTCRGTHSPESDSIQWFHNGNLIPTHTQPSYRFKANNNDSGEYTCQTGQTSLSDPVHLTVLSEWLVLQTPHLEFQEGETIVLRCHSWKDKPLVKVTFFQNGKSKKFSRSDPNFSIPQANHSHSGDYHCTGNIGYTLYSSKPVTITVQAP


Assays:
[1] = molecular target: T4, human FcgRIIIa F158 extracellular domain (human, UniProt P08637 17-208); assay: SPR 25C
T4 construct: extracellular domain; also called hFcgRIIIaF
T4 sequence (P08637 17-208): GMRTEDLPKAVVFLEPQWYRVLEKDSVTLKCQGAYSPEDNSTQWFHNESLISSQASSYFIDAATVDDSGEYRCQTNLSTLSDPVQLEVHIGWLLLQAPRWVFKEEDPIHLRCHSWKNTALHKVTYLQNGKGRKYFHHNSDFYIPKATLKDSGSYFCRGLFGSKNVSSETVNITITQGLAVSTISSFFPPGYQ
Procedure: (§1) Biacore T200 (GE Healthcare) was used to evaluate the binding activity to the respective human Fcγ receptor (hereafter referred to as FcγR). Measurement was performed at 25° C. using 50 mM phosphate, 150 mM NaCl, 0.05 w/v %-P20, pH 7.4 as buffer. About 1000 RU of antibody was captured using a sensor chip immobilized with CaptureSelect™ Human Fab-lambda Kinetics Biotin Conjugate (Thermo Fisher Scientific) as a molecule for ligand capturing. Human FcγR was diluted to 8 nM for FcγRIa and 1000 nM for other FcγR in the measurement buffer, and it was interacted to the captured antibody. The binding activity of each antibody to FcγR was assessed by calculating the binding amount of FcγR (RU) per unit amount of antibody using Biacore T200 Evaluation Software 2.0.

[2] = molecular target: T1, human FcgRIIa type H extracellular …; assay: SPR 25C
Procedure: as §1

[3] = molecular target: T5, human FcgRIIIa V158 extracellular domain (human, UniProt P08637 17-208); assay: SPR 25C
T5 construct: extracellular domain; also called hFcgRIIIaV
T5 sequence (P08637 17-208 F176V): as the sequence (P08637 17-208) above, with F160V counted along it
Procedure: as §1

[4] = molecular target: T2, human FcgRIIa type R extracellular …; assay: SPR 25C
Procedure: as §1

[5] = molecular target: T3, human FcgRIIb extracellular domain; assay: SPR 25C
Procedure: as §1

[6] = molecular target: T6, human FcgRIa extracellular domain (human, UniProt P12314 16-292); assay: SPR 25C
T6 construct: extracellular domain; also called hFcgRIa
T6 sequence (P12314 16-292): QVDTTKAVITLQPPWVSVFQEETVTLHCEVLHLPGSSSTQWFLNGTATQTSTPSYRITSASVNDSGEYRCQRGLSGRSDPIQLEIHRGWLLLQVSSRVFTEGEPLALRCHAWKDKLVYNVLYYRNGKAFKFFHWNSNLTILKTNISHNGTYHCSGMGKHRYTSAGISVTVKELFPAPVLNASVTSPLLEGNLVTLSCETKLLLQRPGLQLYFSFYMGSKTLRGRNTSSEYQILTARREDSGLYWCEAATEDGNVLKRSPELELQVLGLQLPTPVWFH
Procedure: as §1

human FcRn = human FcRn (human, UniProt P55899 24-290; P61769 21-119); assay: SPR 25C pH 6.0, steady state
Procedure: Biacore T200 (GE Healthcare) was used to assess the binding activity to human FcRn. Measurement was performed at 25° C. using 50 mM phosphate, 150 mM NaCl, 0.05 w/v %-P20, pH 6.0 as buffer. Human FcRn proteins used for this determination were prepared by the procedure described in WO2010107110. About 400 RU of antibody was captured using a sensor chip immobilized with CaptureSelect™ Human Fab-lambda Kinetics Biotin Conjugate (Thermo Fisher Scientific) as a molecule for ligand capturing, followed by the binding of human FcRn diluted in measuring buffer. The activity of the respective antibodies to bind FcRn was assessed by calculating KD(mol/L) by the steady-state model using Biacore T200 Evaluation Software 2.0.

| Binder | binding per 1RU antibody [1] [RU] | relative binding (A375-G1T3/B167-Lamlib=1) [1] | binding per 1RU antibody [2] [RU] | relative binding (A375-G1T3/B167-Lamlib=1) [2] | binding per 1RU antibody [3] [RU] | relative binding (A375-G1T3/B167-Lamlib=1) [3] | binding per 1RU antibody [4] [RU] | relative binding (A375-G1T3/B167-Lamlib=1) [4] | binding per 1RU antibody [5] [RU] | relative binding (A375-G1T3/B167-Lamlib=1) [5] | binding per 1RU antibody [6] [RU] | relative binding (A375-G1T3/B167-Lamlib=1) [6] | Kd (human FcRn) [µM] |
| --- | --- | --- | --- | --- | --- | --- | --- | --- | --- | --- | --- | --- | --- |
| A375-SCF028/B167-Lamlib (antibody, human IgG1, lambda) heavy: EVQLVESGGGLVKPGGSLRLSCAASGFTFSTFTMNWVRQAPGKGLEWVSSISSKSTYIEYADSFKVRFTISRDNAKNSLYLQMNSLRAEDTAVYYCARYGAKNFLNWVFDYWGQGTLVTVSSASTKGPSVFPLAPSSKSTSGGTAALGCLVKDYFPEPVTVSWNSGALTSGVHTFPAVLQSSGLYSLSSVVTVPSSSLGTQTYICNVNHKPSNTKVDKKVEPKSCDKTHTCPPCPAPEYLGDDSVFLFPPKPKDVLMISRTPEVTCVVVDVSHEDPEVKFNWYVDGVEVHNAKTKPREEQYNSTYRVVSVLPVLHQDWLNGKEYKCKVSNKALPKPIEKTISKAKGQRREPQVYTLPPSREEMTKNQVSLTCLVKGFYPSDIAVEWESNGQPENNYKTTPPVLDSDGSFFLYSKLTVKKSRWQQGNVFSCSVMHEALHNHYTQKSLSLSP light: QSALTQPPSASGSPGQTVTISCTGTRYDVGYYEYVSWYQQHPGKAPKLMIYETSKRLSGVPDRFSGSKSGNTASLTVSGLQAEDEADYYCSSYRYEHQVSFGGGTKLTVLGQPKAAPSVTLFPPSSEELQANKATLVCLISDFYPGAVTVAWKADSSPVKAGVETTTPSKQSNNKYAASSYLSLTPEQWKSHRSYSCQVTHEGSTVEKTVAPTECS | -0.0009 | -0.04 | 0.0101 | 0.18 | -0.001 | -0.01 | 0.0299 | 0.64 | 0.0995 | 9.08 | 0.0027 | 0.03 | 1.27 |
| A375-SCF027/B167-Lamlib (antibody, human IgG1, lambda) heavy: EVQLVESGGGLVKPGGSLRLSCAASGFTFSTFTMNWVRQAPGKGLEWVSSISSKSTYIEYADSFKVRFTISRDNAKNSLYLQMNSLRAEDTAVYYCARYGAKNFLNWVFDYWGQGTLVTVSSASTKGPSVFPLAPSSKSTSGGTAALGCLVKDYFPEPVTVSWNSGALTSGVHTFPAVLQSSGLYSLSSVVTVPSSSLGTQTYICNVNHKPSNTKVDKKVEPKSCDKTHTCPPCPAPEYLGGDSVFLFPPKPKDVLMISRTPEVTCVVIDVSHEDPEVKFNWYVDGVEVHNAKTKPREEQYNSTYRVVSVLPVLHQDWLNGKEYKCKVSNKALPKPIEKTISKAKGQRREPQVYTLPPSREEMTKNQVSLTCLVKGFYPSDIAVEWESNGQPENNYKTTPPVLDSDGSFFLYSKLTVKKSRWQQGNVFSCSVMHEALHNHYTQKSLSLSP light: QSALTQPPSASGSPGQTVTISCTGTRYDVGYYEYVSWYQQHPGKAPKLMIYETSKRLSGVPDRFSGSKSGNTASLTVSGLQAEDEADYYCSSYRYEHQVSFGGGTKLTVLGQPKAAPSVTLFPPSSEELQANKATLVCLISDFYPGAVTVAWKADSSPVKAGVETTTPSKQSNNKYAASSYLSLTPEQWKSHRSYSCQVTHEGSTVEKTVAPTECS | -0.0005 | -0.02 | 0.0031 | 0.06 | -0.0006 | -0.01 | 0.0058 | 0.12 | 0.0766 | 6.99 | 0.0044 | 0.05 | 1.33 |

Binders with a lower Kd (human FcRn), results first:

| binding per 1RU antibody [1] [RU] | relative binding (A375-G1T3/B167-Lamlib=1) [1] | binding per 1RU antibody [2] [RU] | relative binding (A375-G1T3/B167-Lamlib=1) [2] | binding per 1RU antibody [3] [RU] | relative binding (A375-G1T3/B167-Lamlib=1) [3] | binding per 1RU antibody [4] [RU] | relative binding (A375-G1T3/B167-Lamlib=1) [4] | binding per 1RU antibody [5] [RU] | relative binding (A375-G1T3/B167-Lamlib=1) [5] | binding per 1RU antibody [6] [RU] | relative binding (A375-G1T3/B167-Lamlib=1) [6] | Kd (human FcRn) [µM] | Binder |
| --- | --- | --- | --- | --- | --- | --- | --- | --- | --- | --- | --- | --- | --- |
| 0.0009 | 0.04 | 0.0514 | 0.91 | 0.0016 | 0.02 | 0.0518 | 1.12 | 0.0511 | 4.67 | 0.0021 | 0.03 | 1.13 | A375-SCF025a/B167-Lamlib (antibody, human IgG1, lambda) heavy: EVQLVESGGGLVKPGGSLRLSCAASGFTFSTFTMNWVRQAPGKGLEWVSSISSKSTYIEYADSFKVRFTISRDNAKNSLYLQMNSLRAEDTAVYYCARYGAKNFLNWVFDYWGQGTLVTVSSASTKGPSVFPLAPSSKSTSGGTAALGCLVKDYFPEPVTVSWNSGALTSGVHTFPAVLQSSGLYSLSSVVTVPSSSLGTQTYICNVNHKPSNTKVDKRVEPKSCDKTHTCPPCPAPELWNGPSVFLFPPKPKDTLMISRTPEVTCVVVDVSDEDPEVKFNWYVDGVEVHNAKTKPREELYNSTYRVVSVLTVLHQDWLNGKEYKCKVSNTALPKPIEKTISKAKGQRREPQVYTLPPSREEMTKNQVSLTCLVKGFYPSDIAVEWESNGQPENNYKTTPPVLDSDGSFFLYSKLTVKKSRWQQGNVFSCSVMHEALHNHYTQKSLSLSP light: QSALTQPPSASGSPGQTVTISCTGTRYDVGYYEYVSWYQQHPGKAPKLMIYETSKRLSGVPDRFSGSKSGNTASLTVSGLQAEDEADYYCSSYRYEHQVSFGGGTKLTVLGQPKAAPSVTLFPPSSEELQANKATLVCLISDFYPGAVTVAWKADSSPVKAGVETTTPSKQSNNKYAASSYLSLTPEQWKSHRSYSCQVTHEGSTVEKTVAPTECS |
| 0.0012 | 0.06 | 0.0514 | 0.91 | 0.0014 | 0.02 | 0.0519 | 1.12 | 0.0512 | 4.67 | 0.0022 | 0.03 | 1.1 | A375-SCF025/B167-Lamlib (antibody, human IgG1, lambda) heavy: EVQLVESGGGLVKPGGSLRLSCAASGFTFSTFTMNWVRQAPGKGLEWVSSISSKSTYIEYADSFKVRFTISRDNAKNSLYLQMNSLRAEDTAVYYCARYGAKNFLNWVFDYWGQGTLVTVSSASTKGPSVFPLAPSSKSTSGGTAALGCLVKDYFPEPVTVSWNSGALTSGVHTFPAVLQSSGLYSLSSVVTVPSSSLGTQTYICNVNHKPSNTKVDKKVEPKSCDKTHTCPPCPAPELWNGPSVFLFPPKPKDTLMISRTPEVTCVVVDVSDEDPEVKFNWYVDGVEVHNAKTKPREELYNSTYRVVSVLTVLHQDWLNGKEYKCKVSNTALPKPIEKTISKAKGQRREPQVYTLPPSREEMTKNQVSLTCLVKGFYPSDIAVEWESNGQPENNYKTTPPVLDSDGSFFLYSKLTVKKSRWQQGNVFSCSVMHEALHNHYTQKSLSLSP light: QSALTQPPSASGSPGQTVTISCTGTRYDVGYYEYVSWYQQHPGKAPKLMIYETSKRLSGVPDRFSGSKSGNTASLTVSGLQAEDEADYYCSSYRYEHQVSFGGGTKLTVLGQPKAAPSVTLFPPSSEELQANKATLVCLISDFYPGAVTVAWKADSSPVKAGVETTTPSKQSNNKYAASSYLSLTPEQWKSHRSYSCQVTHEGSTVEKTVAPTECS |
